The record followed here is patent US20060159654A1 (ROCKEFELLER UNIVERSITY, published 2006).

Assay [1] concerns the target murine TRANCE receptor (TRANCE-R) on the cell surface (murine) (UniProt O35305). The assay is described as follows: cell-based or functional assay.
Assay [2] has as its target T1, murine TRANCE (mTRANCE) on the cell surface (murine, UniProt O35235 1-316).
T1 construct: also called RANK-L
T1 sequence: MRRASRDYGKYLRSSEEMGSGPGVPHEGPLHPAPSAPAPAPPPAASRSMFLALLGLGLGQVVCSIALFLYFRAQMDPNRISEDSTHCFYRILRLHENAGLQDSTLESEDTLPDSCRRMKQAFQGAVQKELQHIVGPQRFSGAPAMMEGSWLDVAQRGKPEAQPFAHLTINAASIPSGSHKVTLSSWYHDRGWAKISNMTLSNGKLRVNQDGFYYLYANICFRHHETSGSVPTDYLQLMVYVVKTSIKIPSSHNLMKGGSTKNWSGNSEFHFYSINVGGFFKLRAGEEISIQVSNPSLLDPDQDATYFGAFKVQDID
Put plainly: flow cytometry on transfected 293T cells and on activated murine T cells, TR-Fc at 5 mg/ml as printed, FITC anti-human Fc. As to the method: Determination of the specificity of hCD8-TRANCE and TR-Fc.
Flow cytometry. The expression of TRANCE on activated CD4+ and CD8⁺ T-cells was assessed using the TR-Fc fusion protein at 5 mg/ml followed by FITC-conjugated goat anti-human IgG (Fc specific) F(ab′)₂ fragment (Jackson. Laboratories, West Grove, Pa.). The negative control consisted of normal hIgG1 (Sigma, St Louis, […].). T-cell and thymocyte subsets were sorted using a FACS “VANTAGE”, (Becton Dickinson, Mountain View, Calif.).
For orientation: Flow cytometry measures light scatter and fluorescence of single cells or particles in a stream.

Take “FLAG-tagged soluble form of TRANCE (TRANCE-Ecto) (from UniProt O35235 72-316) (ligand)”: in assay [1], the JNK activation (fold induction over unstimulated), LNTC worked out at 2 fold; the JNK activation (fold induction over unstimulated), T cell hybridomas is 2 fold; the JNK activation (fold induction over unstimulated), thymocytes amounted to 3 fold.
The molecule “human CD8-TRANCE recombinant molecule (from UniProt P01732 22-182) (ligand)” came in with a JNK activity in thymocytes of control littermates in assay [1] of 2.5 fold.

B1: TRANCE-R-Fc recombinant molecule (Fc fusion, murine, UniProt O35305 31-214, looked up)
chain: VTPPCTQERHYEHLGRCCSRCEPGKYLSSKCTPTSDSVCLPCGPDEYLDTWNEEDKCLLHKVCDAGKALVAVDPGNHTAPRRCACTAGYHWNSDCECCRRNTECAPGFGAQHPLQLNKDTVCTPCLLGFFSDVFSSTDKCKPWTNCTLLGKLEAHQGTTESDVVCSSSMTLRRPPKEAQAYLPS
notes: extracellular domain; Made in a baculovirus system and purified on protein A sepharose; also called TR-Fc; TR.R-Fc; not shown: Fc portion of human IgG1, fused to the C-terminal end of the receptor's extracellular domain
Turning to B1, the binding result in assay [2] is on record as “binds”.
